The source of these data is publication PMC12111831, “Phase-Separated Multienzyme Condensates for Efficient Synthesis of Imines from Carboxylic Acids with Enhanced Dual-Cofactor Recycling” (International Journal of Molecular Sciences, 2025).

The target of data set [1] is T1, AspRedAm (Aspergillus oryzae, UniProt Q2TW47).
T1 sequence (Q2TW47 1-295): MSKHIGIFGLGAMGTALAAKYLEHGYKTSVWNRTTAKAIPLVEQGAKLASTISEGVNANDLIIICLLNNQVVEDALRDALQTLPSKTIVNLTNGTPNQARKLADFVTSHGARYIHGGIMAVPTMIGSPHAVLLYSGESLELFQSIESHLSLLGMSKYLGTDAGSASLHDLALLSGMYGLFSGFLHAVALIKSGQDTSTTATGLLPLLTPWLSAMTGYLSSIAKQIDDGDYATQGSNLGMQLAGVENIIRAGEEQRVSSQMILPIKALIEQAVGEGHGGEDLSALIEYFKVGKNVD
The data set is described as follows: NADPH absorbance at […] nm, specific activity. The class given is biochemical. The settings on record: 10 mM aldehyde, 20 mM amine, 0.2 mM NADPH, MOPS pH 7.5, 30 °C.

In data set [2] the test system is O=C(O)c1ccccc1. The data set is described as follows: purified protein. The settings on record: ATP, NADPH, Mg2+, 30 °C.
The test system of data set [3] is O=C(O)CCc1ccccc1. The data set is described as follows: purified protein, by the assay type. The settings on record: pH 7.5; 30.0 °C.
Protocol: (§1) Varying substrate concentrations were dissolved in 250 mM NaOH. Substrate-free controls were included for baseline correction. Kinetic parameters were derived via the nonlinear regression of Michaelis–Menten plots using OriginPro 2021 SR2 (64-bit) Build 9.8.0.240.
Data set [4] concerns O=C(O)c1ccc2c(c1)OCO2. The data set is described as follows: purified protein, by the assay type. The conditions noted are these: pH 7.5; 30.0 °C.
Protocol: as §1
In data set [5] the test system is CCCC(=O)O. The data set is described as follows: purified protein, by the assay type. The settings on record: pH 7.5; 30.0 °C.
Protocol: as §1
Data set [6] relates to COc1ccc(C(=O)O)cc1. Put plainly: purified protein, by the assay type. The settings on record: pH 7.5; 30.0 °C.
Protocol: as §1
The test system of data set [7] is Cc1ccc(C(=O)O)cc1. The data set is described as follows: purified protein, by the assay type. The conditions noted are these: pH 7.5; 30.0 °C.
Protocol: as §1

As a reminder, the Km is the substrate concentration at which the rate is half of its maximum. One may read the kcat as the maximal rate divided by the concentration of active sites.

Regarding `NC1CC1` [cyclopropylamine], the “NADPH absorbance at 340 nm, specific activity” value in data set [1] (not with aldehyde 2h) is “both enzymes exhibited catalytic activity toward all tested substrates, except for substrate 2h with cyclopropylamine”.
On to NiCAR (Nocardia iowensis), for which the Km worked out at 450 ± 30 µM in data set [2]; 1040 ± 90 µM in data set [3]; 4490 ± 620 µM in data set [4]; 101930 ± 21090 µM in data set [5]; 1580 ± 140 µM in data set [6]; 1850 ± 160 µM in data set [7]. Further, the kcat is 3.9227 ± 0.0378 s⁻¹ in data set [2]; 3.15 ± 0.0588 s⁻¹ in data set [3]; 1.58 ± 0.0875 s⁻¹ in data set [4]; 5.56 ± 1.05 s⁻¹ in data set [5]; 1.89 ± 0.0387 s⁻¹ in data set [6]; 3.17 ± 0.0792 s⁻¹ in data set [7].
For the compound `C#CCN` [propargylamine], the “NADPH absorbance at 340 nm, specific activity” value in data set [1] is on record as “both enzymes exhibited catalytic activity toward all tested substrates, except for substrate 2h with cyclopropylamine”.
